Data reported in patent US20210388105A1 (ELPISCIENCE SUZHOU BIOPHARMA, published 2021).

T1: KW27-11 (human CD39 mutant, C-terminal EGFP) (human, UniProt P49961 1-510)
T1 construct: expressed on HEK293F cells; 'D3565' as printed is read as D356S; not shown: C-terminal EGFP fusion (vector pCMV3-GFPSpark)
T1 chain: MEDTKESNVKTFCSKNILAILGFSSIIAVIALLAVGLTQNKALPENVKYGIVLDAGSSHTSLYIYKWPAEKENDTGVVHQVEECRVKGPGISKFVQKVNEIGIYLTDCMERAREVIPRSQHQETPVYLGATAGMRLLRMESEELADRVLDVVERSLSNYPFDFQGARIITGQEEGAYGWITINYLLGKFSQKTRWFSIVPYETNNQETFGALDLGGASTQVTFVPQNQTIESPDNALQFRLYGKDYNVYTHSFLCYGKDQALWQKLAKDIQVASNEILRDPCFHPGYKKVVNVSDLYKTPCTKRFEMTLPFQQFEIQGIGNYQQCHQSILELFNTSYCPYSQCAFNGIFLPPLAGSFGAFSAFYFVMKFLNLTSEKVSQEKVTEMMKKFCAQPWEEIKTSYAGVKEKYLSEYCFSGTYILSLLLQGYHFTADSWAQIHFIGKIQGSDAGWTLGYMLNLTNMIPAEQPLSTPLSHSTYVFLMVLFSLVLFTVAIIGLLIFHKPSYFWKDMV

T2: KW27-4 (human CD39 mutant, C-terminal EGFP) (human, UniProt P49961 1-510)
T2 construct: expressed on HEK293F cells; not shown: C-terminal EGFP fusion (vector pCMV3-GFPSpark)
T2 chain: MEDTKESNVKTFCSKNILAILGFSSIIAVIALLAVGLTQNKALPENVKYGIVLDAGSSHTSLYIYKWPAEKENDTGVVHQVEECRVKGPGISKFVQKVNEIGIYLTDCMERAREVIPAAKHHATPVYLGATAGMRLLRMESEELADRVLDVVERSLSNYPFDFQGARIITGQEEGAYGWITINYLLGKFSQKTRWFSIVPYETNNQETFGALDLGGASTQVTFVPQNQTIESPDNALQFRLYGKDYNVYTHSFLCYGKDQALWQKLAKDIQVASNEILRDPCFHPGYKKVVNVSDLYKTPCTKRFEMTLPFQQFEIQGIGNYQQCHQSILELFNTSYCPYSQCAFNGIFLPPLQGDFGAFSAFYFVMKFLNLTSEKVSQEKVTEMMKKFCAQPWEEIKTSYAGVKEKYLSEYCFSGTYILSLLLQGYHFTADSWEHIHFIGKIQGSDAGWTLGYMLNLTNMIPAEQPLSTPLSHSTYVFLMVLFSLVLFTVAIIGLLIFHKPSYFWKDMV

T3: KW27-12 (human CD39 mutant, C-terminal EGFP) (human, UniProt P49961 1-510)
T3 construct: expressed on HEK293F cells; not shown: C-terminal EGFP fusion (vector pCMV3-GFPSpark)
T3 chain: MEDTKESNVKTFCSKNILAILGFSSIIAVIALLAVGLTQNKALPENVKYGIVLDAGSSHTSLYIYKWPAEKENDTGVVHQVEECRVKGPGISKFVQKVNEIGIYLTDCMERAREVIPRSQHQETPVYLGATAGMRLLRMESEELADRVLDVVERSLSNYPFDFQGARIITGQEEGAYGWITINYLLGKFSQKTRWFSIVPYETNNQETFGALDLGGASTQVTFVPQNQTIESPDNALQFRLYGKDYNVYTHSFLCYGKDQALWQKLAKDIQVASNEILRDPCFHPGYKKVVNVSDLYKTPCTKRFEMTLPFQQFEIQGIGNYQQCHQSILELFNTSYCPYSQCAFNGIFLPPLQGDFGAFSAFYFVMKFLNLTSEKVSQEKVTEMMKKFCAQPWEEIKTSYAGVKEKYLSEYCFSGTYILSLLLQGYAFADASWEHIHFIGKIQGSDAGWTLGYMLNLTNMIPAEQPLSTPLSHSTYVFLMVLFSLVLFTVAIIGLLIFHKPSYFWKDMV

T4: human CD39 (protein; form not stated) (human, UniProt P49961 38-478, limits assumed)
T4 construct: also called ENTPD1; ENTPDase 1
T4 sequence: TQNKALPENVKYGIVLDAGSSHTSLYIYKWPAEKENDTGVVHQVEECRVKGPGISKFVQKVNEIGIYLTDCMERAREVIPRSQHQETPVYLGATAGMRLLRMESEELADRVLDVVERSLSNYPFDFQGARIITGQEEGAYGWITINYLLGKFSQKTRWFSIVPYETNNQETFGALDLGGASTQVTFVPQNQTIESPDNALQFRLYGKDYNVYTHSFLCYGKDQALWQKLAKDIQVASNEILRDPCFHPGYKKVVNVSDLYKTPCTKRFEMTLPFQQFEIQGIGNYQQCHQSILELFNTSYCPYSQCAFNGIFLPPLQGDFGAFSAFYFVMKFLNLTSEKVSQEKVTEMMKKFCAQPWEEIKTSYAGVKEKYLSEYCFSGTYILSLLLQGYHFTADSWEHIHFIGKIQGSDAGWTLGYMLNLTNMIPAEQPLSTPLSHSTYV


Key:
[1] = biological target: T1, KW27-11 (human CD39 mutant, C-terminal …); assay: FACS, mutant-EGFP on HEK293F cells
Protocol: (§1) Briefly, the human CD39 mutants were generated by gene synthesis and then cloned into an expression vector pCMV3-GFPSpark. The vectors containing the validated mutated sequences were prepared and transfected into HEK293F cells. Three days post transfection, the cells were collected to testing EGFP for transgene expression. A range of dosages of antibodies (start from 100 nM, 3-folds dilution, 11 points) were tested on the 20 generated mutants and stained by AlexFluor647 labelled anti-hIgG by FACS. Antibody binding was descripted as relative binding which is derived from AlexFluor647 intensity divided by GFP intensity.

[2] = biological target: T2, KW27-4 (human CD39 mutant, C-terminal …); assay: FACS, mutant-EGFP on HEK293F cells
Protocol: as §1

[3] = biological target: T3, KW27-12 (human CD39 mutant, C-terminal …); assay: FACS, mutant-EGFP on HEK293F cells
Protocol: as §1

[4] = biological target: T4, human CD39 (protein; form not stated); assay: Octet (BLI), antibody on sensor, CD39 in solution
Protocol: Briefly, the antibodies were coupled on sensors and then the sensors were dipped into CD39 gradients (start at 200 nM, with 2-fold dilution and totally 8 doses). Their binding responses were measured in real-time and results were fit globally.

Row | Binder | binding result [1] | binding result [2] | binding result [3] | Kd [4] [nM] | koff [4] [s⁻¹] | kon [4] [M⁻¹ s⁻¹]
1 | c34 (antibody, V domains shown, its making is not described; also called chimeric antibody c34) VH: EIQVQQSGPELVKPGASVKVSCKASGYSFTDYNMYWVKQSHGKSLEWIGFIDPYNGYTSYNQKFKGKATLTIDKSSSTAFMHLNSLTSEDSAVYYCAIYGYDDAYYFDYWGQGTTLTVSS VL: QIVLTQSPAIMSASPGEKVTITCSATSSVSYMHWFRQKPGTSPKLWIYSTSNLASGVPARFSGSGSGTSYSLTISRMAAEDAATYYCQQRITYPFTFGSGTKLEIT | binds | binds | binds |  |  | 
2 | c35 (antibody, V domains shown, its making is not described; also called chimeric antibody c35) VH: EVRLQQSGAELVKPGASVKLSCTASGFNIEDTYVHWMKQRPEQGLEWIGRIDPAIDNSKYDPKFQGKATITAVSSSNTAYLQLSSLTSEDTAVYYCALYDGYNVYAMDYWGQGTSVTVSS VL: DIVMTQAAFSNPVTLGTSASISCRSSKNLLHSNGITYLYWYLQRPGQSPQLLIYRASTLASGVPNRFSGSESGTDFTLRISRVEAEDVGVYYCAQLLELPHTFGGGTKLEIK | binds | binds | binds |  |  | 
3 | Antibody 9-8B (antibody, V domains shown) VH: QIQLVQSGPELKKPGETVKISCKASGYTFTHYGMNWVKQAPGKGLKWMGWINTYTGELTYADDFKGRFAFSLETSASTAYLQINNLKNEDTATYFCARRAYYRYDYVMDYWGQGTSVTVSS VL: DIVMTQSQKFMSTSVGDRVSVTCKASHNVGTNVAWYQQKPGQSPKALIYSASYRYSGVPGRFTGSGSGTDFTLTISNVQSEDLAEYFCHQYNNYPYTFGGGTKLEIK | binds | binds | binds | 20.2 | 0.00243 | 120000

Further lines, results first:

Row | binding result [1] | binding result [2] | binding result [3] | Kd [4] [nM] | koff [4] [s⁻¹] | kon [4] [M⁻¹ s⁻¹] | Binder
4 | binds | binds | binds | 0.687 | 9.36e-05 | 136000 | hu23.H5L5 (antibody, V domains shown, humanized c23) VH: QVQLVQSGAEVKKPGASVKVSCKASGYNLKDTFLHWVRQAPGQGLEWMGRIDPANGNIKYDPKFQGRVTITADTSANTAYMELISLRSEDTAVYYCANSPYYYGSGYRIFDVWGQGTTVTVSS VL: QIVLTQSPATLSLSPGERATLSCSAFSSVNYMHWYQQKPGQAPRLLIYTTSNLASGIPTRFSGSGSGTSYTLTISSLEPEDFAVYYCQQRSTYPFTFGQGTKLEIK
5 | binds | binds | binds | 6.62 | 0.00444 | 671000 | Antibody T895 (antibody, V domains shown, also called 31895) VH: EVQLQQSGPELVKPGASVKMSCKASGYTFTDYNMHWVKQSHGRTLEWIGYIVPLNGGSTFNQKFKGRATLTVNTSSRTAYMELRSLTSEDSAAYYCARGGTRFAYWGQGTLVTVSA VL: not shown
